Measurements reported in paper PMC9261887.

Each substance was assayed against Human angiotensin-converting enzyme 2 ectodomain (amino acids 20-613) with C-terminal E5 coil tag, p (human) (UniProt Q9BYF1) (assay: SPR).
Chain of Human angiotensin-converting enzyme 2 ectodomain (amino acids 20-613) with C-terminal E5 coil tag, p (human) (Q9BYF1 20-613): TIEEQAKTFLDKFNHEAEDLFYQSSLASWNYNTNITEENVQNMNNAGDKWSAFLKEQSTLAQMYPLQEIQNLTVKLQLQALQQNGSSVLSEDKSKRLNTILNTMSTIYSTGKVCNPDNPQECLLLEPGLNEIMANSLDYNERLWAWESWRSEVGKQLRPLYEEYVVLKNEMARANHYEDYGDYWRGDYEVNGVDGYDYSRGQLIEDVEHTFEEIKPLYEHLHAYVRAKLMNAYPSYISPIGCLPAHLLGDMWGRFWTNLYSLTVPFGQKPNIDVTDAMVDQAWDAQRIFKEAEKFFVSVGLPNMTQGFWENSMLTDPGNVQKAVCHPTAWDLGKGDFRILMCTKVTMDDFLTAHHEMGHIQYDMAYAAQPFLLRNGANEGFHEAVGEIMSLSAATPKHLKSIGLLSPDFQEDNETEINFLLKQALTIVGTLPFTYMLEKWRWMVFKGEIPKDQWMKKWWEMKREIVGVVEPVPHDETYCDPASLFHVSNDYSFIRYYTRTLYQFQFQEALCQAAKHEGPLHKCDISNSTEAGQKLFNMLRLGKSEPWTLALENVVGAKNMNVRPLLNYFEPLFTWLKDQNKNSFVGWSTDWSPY

| Substance | dH [kcal/mol] |
| --- | --- |
| SARS-CoV-2 spike protein receptor binding domain (RBD 319-541), Beta B.1.351 (from UniProt P0DTC2 319-541) (domain or fragment) | -15.3 |
| SARS-CoV-2 spike protein receptor binding domain (RBD 319-541), Alpha B.1.1.7 (from UniProt P0DTC2 319-541) (domain or fragment) | -17.4 |
| SARS-CoV-2 spike protein receptor binding domain (RBD 319-541), Kappa B.1.617.1 (from UniProt P0DTC2 319-541) (domain or fragment) | -9.56 |
| SARS-CoV-2 spike protein receptor binding domain (RBD 319-541), Omicron B.1.1.529 (from UniProt P0DTC2 319-541) (domain or fragment) | -17 |
| SARS-CoV-2 spike protein receptor binding domain (RBD 319-541), Delta B.1.617.2 (from UniProt P0DTC2 319-541) (domain or fragment) | -10.9 |
